# B1: Abet0380-GL IgG1-TM: germlined Abet0380; VH SEQ ID NO: 524, VL SEQ ID NO: 533; human IgG1 triple mutant format (antibody, listed as Homo sapiens, V domains shown)
# VH: EVQLLESGGGLVQPGGSLRLSCAASMGNFNYQTMWWVRQAPGKGLEWVSVIGKTNENIAYADSVKGRFTISRDNSKNTLYLQMNSLRAEDTAVYYCAREWMDHSRPYYYYGMDVWGQGTLVTVSS
# VL: SYELTQPPSVSVSPGQTASITCSGHNLEDKFASWYQQKPGQSPVLVIYRDDKRPSGIPERFSASNSGHTATLTISGTQAMDEADYYCSSQDTVTRVFGGGTKLTVL
# modifications: human IgG1 triple mutant constant region; /note=“Abet0380-GL”
# notes: germlined Abet0380; human IgG1 triple mutant format
# Molecular target: T1, Aβ1-42 aggregate (Homo sapiens, UniProt P05067)
# T1 construct: non-cross-linked A[…] 1-42 aggregate
# T1 sequence (P05067 672-713 limits assumed): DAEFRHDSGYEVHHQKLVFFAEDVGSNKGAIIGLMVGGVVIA
# Assay: Western blot of Abeta 42 aggregate preparation (PICUP and non PICUP)
# Assay type: binding
# Settings: primary antibody 2 ug/ml; non PICUP and PICUP Aβ42 aggregate
# Method: To cross-link the A042 oligomers before SDS-PAGE, PICUP (photo-induced cross-linking of peptides) was carried out as follows. A 1 mM solution of Ru(Bpy) was created by adding 2 μl of stock (at 10 mM) to 18 μl of 1×PBS. In addition, a 20 mM solution of ammonium persulphate (APS) was created by adding […] of stock (at 200 mM) to 18 μl of 1×PBS. Unused stock was immediately snap-frozen on dry ice and returned to the −80° C. freezer. In the dark room, 5 μl of Ru(Bpy) was added to 80 μl of aggregate (neat 10 uM sample), followed by 5 μl of APS. Samples were irradiated with a lamp in the dark room for 10 secs. 30 uls of (4×) LDS Sample buffer was added immediately.
# SDS-PAGE was then performed on cross-linked (PICUP) and non-cross-linked A[…] 1-42 aggregate. The solutions were incubated in a hot block at 70° C. for 10 minutes. Meanwhile, a marker was created by combining 5 μl of Magic Mark XP Western Protein Standard, 5 μl of Novex Sharp Pre-stained Protein Standard. After the ten-minute incubation, the samples plus marker were loaded onto a NuPAGE Novex 4-12% Bis-Tris Gels (1.0 mm, 15 well, 15 μl per well) with MES running buffer. The gels were run at 200 V for 35 minutes. […]
# During the final washes, the chemi-luminescence SuperSignal West Dura substrate (Thermo Scientific; 34075) were allowed to warm to room temperature. […]
molecule,measurement,value
B1,Abeta42 recognition profile by Western blot,specifically recognises Aβ1-42 monomer and low n oligomer species up to and including pentamer
